Assays:
[1] = target: the molecule itself; test: SEC + SEC-MALS; purified His-tagged β-clampSam; gel filtration (single peak, about 97 kDa) and SEC-MALS (about 84 kDa)
[2] = target: the molecule itself; test: SEC-MALS; fractions of the main gel filtration peak of NucSSam; molecular weights determined on the right side of the peaks because peak homogeneity was moderate

B1: β-clamp from Streptomyces ambofaciens (β-clampSam), N-terminal His-tagged (natural protein)
chain: MKIRVERDVLAEAVAWAARSLPARPPAPVLAGLLLKAEEGQLSLSSFDYEVSARVSVEAEVEEEGTVLVSGRLLADISRALPNRPVEISTDGVRATVVCGSSRFTLHTLPVEEYPALPQMPEATGTVPGEVFAAAVQQVAIAAGRDDTLPVLTGVRIEIEGDSVTLASTDRYRFAVREFLWKPENPEVSAVALVPAKTLQDTAKALTSGDQVILALAGSGAGEGLIGFEGAGRRTTTRLLEGDLPKYKTLFPTEFNSIAVIETAPFVEAVKRVALVAERNTPVRLSFEQGVLILEAGSSDDAQAVERVDAQLEGDDISIAFNPTFLLDGLSAIDSPVAQLSFTTSTKPALLSGKPAVDAEADEAYKYLIMPVRLSG
[1]
  stoichiometry N: 2

B2: NucS from Streptomyces ambofaciens (NucSSam), N-terminal His-tagged (enzyme, Streptomyces ambofaciens ATCC23877, UniProt A0ABN4PBG3 1-223, looked up)
chain: MRLVIARCSVDYAGRLTAHLPSAPRLILVKADGSVSIHADDRAYKPLNWMSPPCTLKEGTGEEEGVWTVVNKAGEKLIITMEEILHDSSHELGVDPGLIKDGVEAHLQELLADRIETLGEGYTLIRREYMTAIGPVDILCRDAEGRTVAVEIKRRGEIDGVEQLTRYLELLNRDPHLAPVRGVFAAQEIKPQARVLATDRGIGCQVLDYNAMRGIEDDKLRLF
notes: 223 amino acids; calculated molecular weight 24762.44 Da; Found as monomer and dimer in solution, the monomer prevailing; the monomeric fraction was used in the cleavage assays; also called EndoMS/NucS; His-tagged NucSSam; not shown: His-tag, N-terminal, kept
[2]
  stoichiometry N: 2

Source: article PMC11109965, “Correction of non-random mutational biases along a linear bacterial chromosome by the mismatch repair endonuclease NucS” (Nucleic Acids Research, 2024)
